This note sets out measurements from patent US20230287457.

The subject of this data set is Nla type I-C Cascade + Cas3 expressed in E. coli (Neisseria lactamica). Kind of data set: cell_activity. The following applies: PAM 5'-TTC; E. coli plasmid interference.

On to “native CRISPR spacer 1 crRNA ; spacer 1 target with 5'-TTC PAM”, for which the activity (fold reduction in colony count) was determined as 1000.
